From patent US20120128584A1 (ONCOTHERAPY SCIENCE, published 2012)

Target: T1, placental cadherin (P-cadherin; CDH3) (human, UniProt P22223 108-829)
T1 construct: Native CDH3 on the surface of the cancer cell lines H358 and KLM-1; also called native CDH3 protein; CDH3 antigen
Assay: hybridoma screening on cancer cells carrying native CDH3
Description: CDH3 gene encoded extracellular domain (SEQ ID NO: 3) was amplified from cDNA pool derived from cancer cells. The product was cloned into the pcDNA3.1 (Invitrogen, CA). To produce CDH3-specific antibody, mice were immunized subcutaneously with the domain expression vector (17.5 mcg/injection) every two weeks for a month. After the confirmation of the titer of antisera, spleenocytes were extracted from the mice and fused to myeloma cells to prepare hybridomas. We screened the hybridomas which can recognize native CDH3 antigen on the surface of the cancer cells. […] The hybridoma clone #6 was used to inject intraperitoneally into mice. The ascites was recovered after 2 to 3 weeks. Finally antibody was purified from the ascites using Protein A column (GE Healthcare, NJ).

T1 sequence (P22223 108-829 limits assumed): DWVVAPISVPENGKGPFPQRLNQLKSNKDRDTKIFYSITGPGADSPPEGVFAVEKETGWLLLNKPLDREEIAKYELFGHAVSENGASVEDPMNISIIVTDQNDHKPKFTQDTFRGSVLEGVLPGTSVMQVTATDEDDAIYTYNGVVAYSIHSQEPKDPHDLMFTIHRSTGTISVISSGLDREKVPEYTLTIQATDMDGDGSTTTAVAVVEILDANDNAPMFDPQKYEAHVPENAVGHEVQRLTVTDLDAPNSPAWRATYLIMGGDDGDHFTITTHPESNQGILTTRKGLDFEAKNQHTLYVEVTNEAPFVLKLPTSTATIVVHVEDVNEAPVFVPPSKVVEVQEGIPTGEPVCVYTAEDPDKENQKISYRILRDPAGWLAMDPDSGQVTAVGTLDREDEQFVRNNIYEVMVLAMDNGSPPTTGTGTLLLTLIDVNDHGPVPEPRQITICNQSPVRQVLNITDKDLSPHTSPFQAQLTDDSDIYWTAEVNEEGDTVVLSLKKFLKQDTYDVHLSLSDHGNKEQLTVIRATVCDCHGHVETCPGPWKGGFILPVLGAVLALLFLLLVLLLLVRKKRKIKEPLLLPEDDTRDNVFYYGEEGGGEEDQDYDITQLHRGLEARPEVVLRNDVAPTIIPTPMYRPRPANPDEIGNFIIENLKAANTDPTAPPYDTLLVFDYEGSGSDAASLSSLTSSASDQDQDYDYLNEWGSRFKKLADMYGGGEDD

B1: Anti-CDH3 mouse monoclonal antibody produced by hybridoma clone #6 (antibody, V domains shown)
VH: QVQLQQPGAELVKPGTSVKLSCKSSGYTFTSYWIHWVKQRPGHGLEWIGEIDPSDNYTYYNQNFKGKATLTIDKSSSTAYMQLNSLTSEDSAVFYCARSGYGNLFVYWGQGTLVTVSA
VL: QIVLTQSPAIMSSSPGEKVTMSCSATSSVTYMYWYQQKPGSSPKPWIFRTSNLASGVPTRFSGSGSGTSYSLTISSMEAEDAATYYCQHYHIYPRTFGGGTKL
notes: The VL as printed ends at 'TKL'
- binding result: binds
